Data taken from patent publication US20090178146.

Key:
[1] = target: T1, GST-NFAT1(1-415) fusion protein (entire NFAT1 regulatory domain) expressed in bacterial cells
T1 sequence (Q13469 whole entry, species assumed, looked up): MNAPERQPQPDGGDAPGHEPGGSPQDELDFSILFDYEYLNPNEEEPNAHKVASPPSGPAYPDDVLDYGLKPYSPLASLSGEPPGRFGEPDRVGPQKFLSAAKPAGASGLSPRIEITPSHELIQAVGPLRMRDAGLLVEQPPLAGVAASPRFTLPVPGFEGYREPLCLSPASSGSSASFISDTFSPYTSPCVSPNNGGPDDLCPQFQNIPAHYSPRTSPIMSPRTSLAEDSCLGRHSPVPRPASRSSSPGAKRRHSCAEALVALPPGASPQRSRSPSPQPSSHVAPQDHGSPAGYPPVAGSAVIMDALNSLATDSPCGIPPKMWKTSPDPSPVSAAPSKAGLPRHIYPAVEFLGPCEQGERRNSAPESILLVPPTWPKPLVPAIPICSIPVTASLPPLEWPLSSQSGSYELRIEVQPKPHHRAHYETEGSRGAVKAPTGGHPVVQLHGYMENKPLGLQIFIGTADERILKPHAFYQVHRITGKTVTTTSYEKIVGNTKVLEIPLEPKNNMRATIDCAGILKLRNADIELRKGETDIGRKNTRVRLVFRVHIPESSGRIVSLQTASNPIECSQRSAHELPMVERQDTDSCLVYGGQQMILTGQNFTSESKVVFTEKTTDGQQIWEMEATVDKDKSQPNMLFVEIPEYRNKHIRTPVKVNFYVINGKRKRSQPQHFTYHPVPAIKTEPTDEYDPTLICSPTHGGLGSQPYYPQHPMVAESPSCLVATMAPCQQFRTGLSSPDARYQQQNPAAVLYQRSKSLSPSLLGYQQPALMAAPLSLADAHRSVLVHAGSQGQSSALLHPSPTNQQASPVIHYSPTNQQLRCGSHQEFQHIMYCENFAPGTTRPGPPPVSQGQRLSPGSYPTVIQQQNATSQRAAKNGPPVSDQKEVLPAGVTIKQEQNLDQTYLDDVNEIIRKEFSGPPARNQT

[2] = target: T2, GST-fused peptide corresponding to the SP-2 motif (amino acids 206-237) of NFAT1, wild type
T2 sequence (Q13469 whole entry, species assumed, looked up): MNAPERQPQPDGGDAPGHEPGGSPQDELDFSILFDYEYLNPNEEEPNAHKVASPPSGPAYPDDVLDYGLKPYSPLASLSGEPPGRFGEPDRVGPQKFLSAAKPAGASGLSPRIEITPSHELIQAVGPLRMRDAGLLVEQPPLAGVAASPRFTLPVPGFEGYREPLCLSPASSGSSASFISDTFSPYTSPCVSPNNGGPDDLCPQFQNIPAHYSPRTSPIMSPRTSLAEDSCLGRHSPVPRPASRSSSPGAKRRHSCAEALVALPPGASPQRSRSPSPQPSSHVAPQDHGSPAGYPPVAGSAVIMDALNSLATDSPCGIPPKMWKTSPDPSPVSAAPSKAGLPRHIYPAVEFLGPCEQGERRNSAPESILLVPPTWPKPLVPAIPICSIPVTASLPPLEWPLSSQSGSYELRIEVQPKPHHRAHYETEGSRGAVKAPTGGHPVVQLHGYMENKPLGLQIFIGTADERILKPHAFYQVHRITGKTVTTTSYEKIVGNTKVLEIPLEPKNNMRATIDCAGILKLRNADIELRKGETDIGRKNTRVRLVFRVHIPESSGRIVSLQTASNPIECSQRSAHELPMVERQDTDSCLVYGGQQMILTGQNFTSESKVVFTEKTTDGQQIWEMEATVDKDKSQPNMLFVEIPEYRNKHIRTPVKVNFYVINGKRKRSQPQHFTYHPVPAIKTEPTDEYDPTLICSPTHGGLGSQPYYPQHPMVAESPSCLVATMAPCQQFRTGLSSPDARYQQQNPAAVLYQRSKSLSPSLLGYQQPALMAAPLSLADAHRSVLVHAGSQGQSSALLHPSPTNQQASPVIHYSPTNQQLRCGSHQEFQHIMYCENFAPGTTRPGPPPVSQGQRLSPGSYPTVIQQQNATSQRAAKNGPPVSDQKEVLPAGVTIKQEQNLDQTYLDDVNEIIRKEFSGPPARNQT

[3] = target: GST-fused peptide corresponding to the SP-3 motif (amino acids 264-295) of NFAT1, wild type
[4] = target: GST-fused SP-3 peptide of NFAT1 (amino acids 264-295) with Ser>Ala substitutions in the serines phosphorylated in cells

B1: FLAG-tagged PRKG1 expressed in HEK293 cells and immunoprecipitated with anti-FLAG antibody (protein)
chain: MSELEEDFAKILMLKEERIKELEKRLSEKEEEIQELKRKLHKCQSVLPVPSTHIGPRTTRAQGISAEPQTYRSFHDLRQAFRKFTKSERSKDLIKEAILDNDFMKNLELSQIQEIVDCMYPVEYGKDSCIIKEGDVGSLVYVMEDGKVEVTKEGVKLCTMGPGKVFGELAILYNCTRTATVKTLVNVKLWAIDRQCFQTIMMRTGLIKHTEYMEFLKSVPTFQSLPEEILSKLADVLEETHYENGEYIIRQGARGDTFFIISKGTVNVTREDSPSEDPVFLRTLGKGDWFGEKALQGEDVRTANVIAAEAVTCLVIDRDSFKHLIGGLDDVSNKAYEDAEAKAKYEAEAAFFANLKLSDFNIIDTLGVGGFGRVELVQLKSEESKTFAMKILKKRHIVDTRQQEHIRSEKQIMQGAHSDFIVRLYRTFKDSKYLYMLMEACLGGELWTILRDRGSFEDSTTRFYTACVVEAFAYLHSKGIIYRDLKPENLILDHRGYAKLVDFGFAKKIGFGKKTWTFCGTPEYVAPEIILNKGHDISADYWSLGILMYELLTGSPPFSGPDPMKTYNIILRGIDMIEFPKKIAKNAANLIKKLCRDNPSERLGNLKNGVKDIQKHKWFEGFNWEGLRKGTLTPPIIPSVASPTDTSNFDSFPEDNDEPPPDDNSGWDIDF
in vitro kinase assay, phosphorylation of GST-NFAT1 (1-415) (autoradiography) [1]: Three novel candidates-PRKG1, DYRK2 and IRAK4-showed strong activity in this assay

B2: FLAG-tagged DYRK2 expressed in HEK293 cells and immunoprecipitated with anti-FLAG antibody (protein)
chain: MNDHLHVGSHAHGQIQVQQLFEDNSNKRTVLTTQPNGLTTVGKTGLPVVPERQLDSIHRRQGSSTSLKSMEGMGKVKATPMTPEQAMKQYMQKLTAFEHHEIFSYPEIYFLGLNAKKRQGMTGGPNNGGYDDDQGSYVQVPHDHVAYRYEVLKVIGKGSFGQVVKAYDHKVHQHVALKMVRNEKRFHRQAAEEIRILEHLRKQDKDNTMNVIHMLENFTFRNHICMTFELLSMNLYELIKKNKFQGFSLPLVRKFAHSILQCLDALHKNRIIHCDLKPENILLKQQGRSGIKVIDFGSSCYEHQRVYTYIQSRFYRAPEVILGARYGMPIDMWSLGCILAELLTGYPLLPGEDEGDQLACMIELLGMPSQKLLDASKRAKNFVSSKGYPRYCTVTTLSDGSVVLNGGRSRRGKLRGPPESREWGNALKGCDDPLFLDFLKQCLEWDPAVRMTPGQALRHPWLRRRLPKPPTGEKTSVKRITESTGAITSISKLPPPSSSASKLRTNLAQMTDANGNIQQRTVLPKLVS
in vitro kinase assay, phosphorylation of GST-peptide [2]: phosphorylated peptides corresponding to the conserved SP-3 but not the SP-2 motif of the NFAT regulatory domain in vitro | in vitro kinase assay, phosphorylation of GST-NFAT1 (1-415) (autoradiography) [1]: Three novel candidates-PRKG1, DYRK2 and IRAK4-showed strong activity in this assay | in vitro kinase assay, phosphorylation of GST-peptide [3]: phosphorylated peptides corresponding to the conserved SP-3 but not the SP-2 motif of the NFAT regulatory domain in vitro

B3: recombinant DYRK2 protein kinase (Upstate Biotechnology), bacterially expressed (protein)
chain: MNDHLHVGSHAHGQIQVQQLFEDNSNKRTVLTTQPNGLTTVGKTGLPVVPERQLDSIHRRQGSSTSLKSMEGMGKVKATPMTPEQAMKQYMQKLTAFEHHEIFSYPEIYFLGLNAKKRQGMTGGPNNGGYDDDQGSYVQVPHDHVAYRYEVLKVIGKGSFGQVVKAYDHKVHQHVALKMVRNEKRFHRQAAEEIRILEHLRKQDKDNTMNVIHMLENFTFRNHICMTFELLSMNLYELIKKNKFQGFSLPLVRKFAHSILQCLDALHKNRIIHCDLKPENILLKQQGRSGIKVIDFGSSCYEHQRVYTYIQSRFYRAPEVILGARYGMPIDMWSLGCILAELLTGYPLLPGEDEGDQLACMIELLGMPSQKLLDASKRAKNFVSSKGYPRYCTVTTLSDGSVVLNGGRSRRGKLRGPPESREWGNALKGCDDPLFLDFLKQCLEWDPAVRMTPGQALRHPWLRRRLPKPPTGEKTSVKRITESTGAITSISKLPPPSSSASKLRTNLAQMTDANGNIQQRTVLPKLVS
in vitro kinase assay with recombinant kinase, phosphorylation of GST-peptide [3]: DYRK2 and DYRK1A both displayed strong and selective kinase activity towards the SP-3 motif of NFAT1 | in vitro kinase assay with recombinant kinase, phosphorylation of GST-peptide [4]: neither kinase phosphorylated an SP-3 peptide with Ser>Ala substitutions in the specific serine residues known to be phosphorylated in cells

B4: FLAG-tagged IRAK4 expressed in HEK293 cells and immunoprecipitated with anti-FLAG antibody (protein)
chain: MNKPITPSTYVRCLNVGLIRKLSDFIDPQEGWKKLAVAIKKPSGDDRYNQFHIRRFEALLQTGKSPTSELLFDWGTTNCTVGDLVDLLIQNEFFAPASLLLPDAVPKTANTLPSKEAITVQQKQMPFCDKDRTLMTPVQNLEQSYMPPDSSSPENKSLEVSDTRFHSFSFYELKNVTNNFDERPISVGGNKMGEGGFGVVYKGYVNNTTVAVKKLAAMVDITTEELKQQFDQEIKVMAKCQHENLVELLGFSSDGDDLCLVYVYMPNGSLLDRLSCLDGTPPLSWHMRCKIAQGAANGINFLHENHHIHRDIKSANILLDEAFTAKISDFGLARASEKFAQTVMTSRIVGTTAYMAPEALRGEITPKSDIYSFGVVLLEIITGLPAVDEHREPQLLLDIKEEIEDEEKTIEDYIDKKMNDADSTSVEAMYSVASQCLHEKKNKRPDIKKVQQLLQEMTAS
in vitro kinase assay, phosphorylation of GST-NFAT1 (1-415) (autoradiography) [1]: Three novel candidates-PRKG1, DYRK2 and IRAK4-showed strong activity in this assay
